Experimental findings from US20200071424A1 (SHIONOGI, published 2020) are described below.

Assay [1] deals with T1, human [1-305]-mouse chimeric EL (human; mouse, UniProt Q9WVG5 306-500).
T1 sequence: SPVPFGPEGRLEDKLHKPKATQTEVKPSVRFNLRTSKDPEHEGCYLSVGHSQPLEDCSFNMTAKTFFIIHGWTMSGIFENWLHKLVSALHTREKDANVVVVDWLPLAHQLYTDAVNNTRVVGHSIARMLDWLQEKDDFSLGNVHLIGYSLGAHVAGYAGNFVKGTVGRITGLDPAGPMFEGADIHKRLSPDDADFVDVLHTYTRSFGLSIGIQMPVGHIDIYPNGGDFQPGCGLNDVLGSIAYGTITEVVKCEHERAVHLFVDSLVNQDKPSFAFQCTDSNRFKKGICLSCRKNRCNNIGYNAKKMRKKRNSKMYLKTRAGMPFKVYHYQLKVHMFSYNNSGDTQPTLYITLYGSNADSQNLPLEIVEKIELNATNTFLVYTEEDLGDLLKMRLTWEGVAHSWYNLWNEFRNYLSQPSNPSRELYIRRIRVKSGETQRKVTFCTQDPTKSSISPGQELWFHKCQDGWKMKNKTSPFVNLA
The assay is described as follows: cell-based or functional assay.

For assay [2], the target named is T1, human [1-305]-mouse chimeric EL. The assay is described as follows: Biacore; EL captured by anti-C2-tag Ab; bivalent fit. The procedure: The binding affinities of anti-EL antibodies were measured using Biacore. […] Then, anti-EL humanized antibodies were added and the binding affinities were calculated by bivalent fitting of BIAevaluation software.

B1: h53A11-S2 (antibody, V domains shown)
VH: QVQLVQSGAEVKKPGASVKVSCKASGYTFTDYTMHWVRQAPGQRLEWMGGINPYYGGTTYNEKFKDRVTITRDTSASTAYMELSSLRSEDTAVYYCAKGDYYGGSYNYWGQGTTVTVSS
VL: EIVMTQSLATLSVSPGERATLSCRASQDISNSLHWYQQKPGQAPRLLIYYASQSISGIPARFSGSGSGTEFTLTISSLQSEDFAVYYCQQSNSWPYTFGQGTKLEIK
As to B1, the “Neutralizing activity IC50” value in assay [1] was 2.7 nM.

B2: h53A11-S3 (antibody, V domains shown)
VH: QVQLVQSGAEVKKPGASVKVSCKASGYTFTDYTMHWVRQAPGQRLEWMGGINPYYGGTTYNEKFKDRVTITRDTSASTAYMELSSLRSEDTAVYYCAKGDYYGGSYNYWGQGTTVTVSS
VL: EIVMTQSPATLSVSPGERATLSCRASQDISNSLHWYQQKPGQAPRLLIKYASQSISGIPARFSGSGSGTEFTLTISSLQSEDFAVYYCQQSNSWPYTFGQGTKLEIK
Turning to B2, the “Neutralizing activity IC50” value in assay [1] came to 1.8 nM.

B3: h55A1-S4 (antibody, V domains shown)
VH: QVQLVQSGSELKKPGASVKVSCKASGYTFTNYAMNWVRQAPGQGLEWMGWINTYSGVGTYAGDFKGRFVFSLDTSVSTAYLQISSLKAEDTAVYYCARRGFYGRRFFDVWGKGTTVTVSS
VL: DIVLTQSPASLAVSPGQRATITCKASQSVDYDVDSYMHWYQQKPGQPPKLLIYAASNLASGVPARFSGSGSGTDFTLTINPVEANDTANYYCQQTIEDPPTFGGGTKVEIK
notes: humanized
In assay [2], B3 returned a Kd of 3 nM, an off-rate (koff) of 0.00024 s⁻¹ and an association rate constant (kon) of 80000 M⁻¹ s⁻¹. In addition, in assay [1], the “Neutralizing activity IC50” value was found to be 1.1 nM.

B4: h55A1-S3 (antibody, V domains shown)
VH: QVQLVQSGSELKKPGASVKVSCKASGYTFTNYGLNWVRQAPGQGLEWMGWINTYSGVPTYAGDFKGRFVFSLDTSVSTAYLQISSLKAEDTAVYYCARRGYYGRRFFDVWGKGTTVTVSS
VL: DIVLTQSPASLAVSPGQRATITCKASQSVDYDVDSYMHWYQQKPGQPPKLLIYAASNLASGVPARFSGSGSGTDFTLTINPVEANDTANYYCQNTIEDPPTFGGGTKVEIK
notes: humanized
In assay [2], B4 returned a Kd of 4.2 nM, a dissociation rate constant (koff) of 0.00051 s⁻¹ and a kon of 120000 M⁻¹ s⁻¹. Besides, the “Neutralizing activity IC50” value in assay [1] is 1.2 nM.

B5: h55A1-S2 (antibody, V domains shown)
VH: QVQLVQSGSELKKPGASVKVSCKASGYTFTNYGLNWVRQAPGQGLEWMGWINTYSGVPTYAGDFKGRFVFSLDTSVSTAYLQISSLKAEDTAVYYCARRGYYGRRFFDVWGKGTTVTVSS
VL: DIVLTQSPASLAVSPGQRATITCKASQSVDYDVDSYMHWYQQKPGQPPKLLIYAASNLASGVPARFSGSGSGTDFTLTINPVEANDTANYYCQQTIEDPPTFGGGTKVEIK
notes: humanized
Consider B5, for which, in assay [2], the Kd stood at 11 nM, the off-rate (koff) was found to be 0.00037 s⁻¹ and the kon worked out at 35000 M⁻¹ s⁻¹. Also, the “Neutralizing activity IC50” value in assay [1] is 1.1 nM.

B6: h16B3-S5 (antibody, V domains shown)
VH: EVQLVESGGGLVQPGGSLRLSCAASGFTFSGYTMSWVRQAPGKGLEWVSEISFARDRAFYPDTVKGRFTISRDNSKNTLYLQMNSLRAEDTAVYYCARLGGKNRDFWYFDLWGQGTTVTVSS
VL: DIVMTQSPDSLAVSLGERATINCRASESVEYYGTSLMQWYQQKPGQPPKLLIYAASNVESGVPDRFSGSGSGTDFTLTISSLQAEDVAVYYCQQSWKVPFTFGQGTKLEIK
notes: humanized
In assay [2], B6 registered a Kd of 1 nM, a koff of 5.7e-05 s⁻¹ and an on-rate constant (kon) of 54000 M⁻¹ s⁻¹. For the same molecule, the “Neutralizing activity IC50” value in assay [1] came out at 1.2 nM.

B7: h16B3-S1 (antibody, V domains shown)
VH: EVQLVESGGGLVQPGGSLRLSCAASGFTFSGYTMSWVRQAPGKGLEWVSEISFARDRAFYPDTVKGRFTISRDNSKNTLYLQMNSLRAEDTAVYYCAKLGGRNHDYWYFDVWGQGTTVTVSS
VL: DIVMTQSPDSLAVSLGERATINCRASESVEYYGTSLMQWYQQKPGQPPKLLIYAASNVESGVPDRFSGSGSGTDFTLTISSLQAEDVAVYYCQQSWKVPFTFGQGTKLEIK
For B7, the “Neutralizing activity IC50” value in assay [1] came to 2.7 nM.

B8: h16B3-S6 (antibody, V domains shown)
VH: EVQLVESGGGLVQPGGSLRLSCAASGFTFSGYTMSWVRQAPGKGLEWVSEISFARDRAFYPDTVKGRFTISRDNSKNTLYLQMNSLRAEDTAVYYCARLGGKNRDFWYFDLWGQGTTVTVSS
VL: DIVMTQSPDSLAVSLGERATINCRASESVEYYGTSLMQWYQQKPGQPPKLLIYAASNVESGVPDRFSGSGSGTDFTLTISSLQAEDVAVYYCQQSWRVPFTFGQGTKLEIK
notes: humanized
As for B8, in assay [2], the Kd was 1 nM, the koff is 5.8e-05 s⁻¹ and the kon was determined as 60000 M⁻¹ s⁻¹. The “Neutralizing activity IC50” value in assay [1] was determined as 1 nM.

B9: h16B3-S4 (antibody, V domains shown)
VH: EVQLVESGGGLVQPGGSLRLSCAASGFTFSGYTMSWVRQAPGKGLEWVSEISFARDRAFYPDTVKGRFTISRDNSKNTLYLQMNSLRAEDTAVYYCARLGGKNHDFWYFDVWGQGTTVTVSS
VL: DIVMTQSPDSLAVSLGERATINCRASESVEYYGTSLMQWYQQKPGQPPKLLIYAASNVESGVPDRFSGSGSGTDFTLTISSLQAEDVAVYYCQQSWRVPFTFGQGTKLEIK
notes: humanized
For the molecule B9, in assay [2], the Kd was determined as 3 nM, the off-rate constant (koff) was 0.00018 s⁻¹ and the kon came to 61000 M⁻¹ s⁻¹. Also, the “Neutralizing activity IC50” value in assay [1] came out at 1.7 nM.

B10: h16B3-S3 (antibody, V domains shown)
VH: EVQLVESGGGLVQPGGSLRLSCAASGFTFSGYTMSWVRQAPGKGLEWVSEISFARDRAFYPDTVKGRFTISRDNSKNTLYLQMNSLRAEDTAVYYCARLGGKNHDFWYFDVWGQGTTVTVSS
VL: DIVMTQSPDSLAVSLGERATINCRASESVEYYGTSLMQWYQQKPGQPPKLLIYAASNVESGVPDRFSGSGSGTDFTLTISSLQAEDVAVYYCQQSWKVPFTFGQGTKLEIK
notes: humanized
Take B10: in assay [2], the Kd turned out to be 4.5 nM, the koff amounted to 0.00013 s⁻¹ and the kon is 30000 M⁻¹ s⁻¹. Besides, the “Neutralizing activity IC50” value in assay [1] came to 1.9 nM.

B11: h16B3-S8 (antibody, V domains shown)
VH: EVQLVESGGGLVQPGGSLRLSCAASGFTFSAYTMSWVRQAPGKGLEWVSDISFARDRAFYPDTVKGRFTISRDNSKNTLYLQMNSLRAEDTAVYYCARLGGKNRDFWYFDLWGQGTTVTVSS
VL: DIVMTQSPDSLAVSLGERATINCRASESVEYYGTSLMQWYQQKPGQPPKLLIYAASNVESGVPDRFSGSGSGTDFTLTISSLQAEDVAVYYCQQSWRVPFTFGQGTKLEIK
notes: humanized
In the case of B11, in assay [2], the Kd amounted to 0.78 nM, the off-rate constant (koff) stood at 4e-05 s⁻¹ and the kon was determined as 52000 M⁻¹ s⁻¹. For the same molecule, the “Neutralizing activity IC50” value in assay [1] is 1.4 nM.

B12: h16B3-S7 (antibody, V domains shown)
VH: EVQLVESGGGLVQPGGSLRLSCAASGFTFSAYTMSWVRQAPGKGLEWVSDISFARDRAFYPDTVKGRFTISRDNSKNTLYLQMNSLRAEDTAVYYCARLGGKNRDFWYFDLWGQGTTVTVSS
VL: DIVMTQSPDSLAVSLGERATINCRASESVEYYGTSLMQWYQQKPGQPPKLLIYAASNVESGVPDRFSGSGSGTDFTLTISSLQAEDVAVYYCQQSWKVPFTFGQGTKLEIK
notes: humanized
In assay [2], B12 had a Kd of 1.2 nM, an off-rate constant (koff) of 5.9e-05 s⁻¹ and a kon of 50000 M⁻¹ s⁻¹. The “Neutralizing activity IC50” value in assay [1] was 1.4 nM.

B13: h13B3-S2 (antibody, V domains shown)
VH: QVQLVQSGAEVKKPGASVKVSCKASGYTFTEYTMHWVRQAPGQGLEWMGSINPYYGGTSYNEKFKDRVTSTRDTSISTAYMELSRLRSDDTVVYYCARYGNYVGYFDYWGQGTTVTVSS
VL: EIVLTQSPGTLSLSPGERATLSCRASSSVHYMYWYQQKPGQAPRLLIYYTSNLAPGIPDRFSGSGSGTDFTLTISRLEPEDFAVYYCQQFTSSPYTFGGGTKVEIK
Turning to B13, the “Neutralizing activity IC50” value in assay [1] amounted to 9 nM.

B14: h13B3-S3 (antibody, V domains shown)
VH: QVQLVQSGAEVKKPGASVKVSCKASGYTFTEYTMHWVRQAPGQGLEWMGSINPYYGGTSYNEKFKDRVTMTRDTSTSTVYMELSSLRSEDTAVYYCARYGNYVGYFDYWGQGTTVTVSS
VL: EIVLTQSPATLSLSPGERATLSCRASSSVHYMYWYQQKPGQAPRLLIYYTSNLAPGIPARFSGSGSGTDFTLTISSLEPEDFAVYYCQQFTSSPYTFGGGTKVEIK
For the molecule B14, in assay [1], the “Neutralizing activity IC50” value came to 2.1 nM.

B15: h13B3-S4 (antibody, V domains shown)
VH: QVQLVQSGAEVKKPGASVKVSCKASGYTFTEYTMHWVRQAPGQGLEWMGSINPYYGGTSYNEKFKDRVTSTRDTSISTAYMELSRLRSDDTVVYYCARYGNYVGYFDYWGQGTTVTVSS
VL: EIVLTQSPATLSLSPGERATLSCRASSSVHYMYWYQQKPGQAPRLLIYYTSNLAPGIPARFSGSGSGTDFTLTISSLEPEDFAVYYCQQFTSSPYTFGGGTKVEIK
On to B15, for which, in assay [1], the “Neutralizing activity IC50” value came to 2.6 nM.

B16: h23H8-S3 (antibody, V domains shown)
VH: QVQLVQSGAEVKKPGASVKVSCKASGYTFTDNTIHWVRQAPGQGLEWMGHINPYYGGTNNNEKFKDRVTMTRDTSISTAYMELSRLRSDDTAVYYCARKGIYYSSPFDYWGQGTTVTVSS
VL: DIQMTQSPSSLSASVGDRVTITCRASQDINNYLNWYQQKPGKAPKLLISYTSKLHSGVPSRFSGSGSGTDFTLTISSLQPEDFATYYCQQGNTLPFTFGQGTKLEIK
As to B16, the “Neutralizing activity IC50” value in assay [1] amounted to 2 nM.
